Test results as given in PMC6544594, “Accelerated directed evolution of dye-decolorizing peroxidase using a bacterial extracellular protein secretion system (BENNY)” (Bioresources and Bioprocessing, 2019).

Substrate: CCn1c(=NN=c2sc3cc(S(=O)(=O)O)ccc3n2CC)sc2cc(S(=O)(=O)O)ccc21
Experiment: purified protein
Format: biochemical, Pleurotus ostreatus
Conditions: 50 μL of 1 mM H2O2 in 200 μL (0.25 mM), 0.1 M citric acid–0.2 M Na2HPO4 pH 3.4, ambient temperature

B1: DyP4 (dye-decolorizing peroxidase 4) (Pleurotus ostreatus PC15) (protein)
chain: MTTPAPPLDLNNIQGDILGGLPKRTETYFFFDVTNVDQFKANMAHFIPHIKTSAGIIKDREAIKEHKRQKKPGLVPMAAVNVSFSHLGLQKLGITDDLSDNAFTTGQRKDAEILGDPGSKNGDAFTPAWEAPFLKDIHGVIFVAGDCHGSVNKKLDEIKHIFGVGTSHASISEVTHVRGDVRPGDVHAHEHFGFLDGISNPAVEQFDQNPLPGQDPIRPGFILAKENGDSRAAARPDWAKDGSFLTFRYLFQMVPEFDDFLESNPIVLPGLSRKEGSELLGARIVGRWKSGAPIEITPLKDDPKLAADAQRNNKFDFGDSLVRGDQTKCPFAAHIRKTYPRNDLEGPPLKADIDNRRIIRRGIQFGPEVTSQEHHDKKTHHGRGLLFVCYSSSIDDGFHFIQESWANAPNFPVNAVTSAGPIPPLDGVVPGFDAIIGQKVGGGIRQISGTNPNDPTTNITLPDQDFVVPRGGEYFFSPSITALKTKFAIGVASPAPHSQAPISA
notes: DyP4 without OsmY fusion, pET-24a(+)-DyP4 (NdeI/EcoRI), codon-optimized, untagged, E. coli BL21 (DE3), ion-exchange and SEC purified; forward primer encodes MTTPAPPL
  Km: 895 ± 65 µM
  kcat: 3.86 ± 0.08 s⁻¹
  kcat/Km: 4310 ± 410 M⁻¹ s⁻¹

B2: DyP4 (dye-decolorizing peroxidase 4) (Pleurotus ostreatus PC15; I56V/K109R/N227S/N312S) (protein)
chain: MTTPAPPLDLNNIQGDILGGLPKRTETYFFFDVTNVDQFKANMAHFIPHIKTSAGVIKDREAIKEHKRQKKPGLVPMAAVNVSFSHLGLQKLGITDDLSDNAFTTGQRRDAEILGDPGSKNGDAFTPAWEAPFLKDIHGVIFVAGDCHGSVNKKLDEIKHIFGVGTSHASISEVTHVRGDVRPGDVHAHEHFGFLDGISNPAVEQFDQNPLPGQDPIRPGFILAKESGDSRAAARPDWAKDGSFLTFRYLFQMVPEFDDFLESNPIVLPGLSRKEGSELLGARIVGRWKSGAPIEITPLKDDPKLAADAQRSNKFDFGDSLVRGDQTKCPFAAHIRKTYPRNDLEGPPLKADIDNRRIIRRGIQFGPEVTSQEHHDKKTHHGRGLLFVCYSSSIDDGFHFIQESWANAPNFPVNAVTSAGPIPPLDGVVPGFDAIIGQKVGGGIRQISGTNPNDPTTNITLPDQDFVVPRGGEYFFSPSITALKTKFAIGVASPAPHSQAPISA
notes: as for B1
Variant 4D4
  Km: 390 ± 59 µM
  kcat: 4.52 ± 0.15 s⁻¹
  kcat/Km: 11600 ± 2140 M⁻¹ s⁻¹

B3: DyP4 (dye-decolorizing peroxidase 4) (Pleurotus ostreatus PC15; I56V/K109R/N312S) (protein)
chain: MTTPAPPLDLNNIQGDILGGLPKRTETYFFFDVTNVDQFKANMAHFIPHIKTSAGVIKDREAIKEHKRQKKPGLVPMAAVNVSFSHLGLQKLGITDDLSDNAFTTGQRRDAEILGDPGSKNGDAFTPAWEAPFLKDIHGVIFVAGDCHGSVNKKLDEIKHIFGVGTSHASISEVTHVRGDVRPGDVHAHEHFGFLDGISNPAVEQFDQNPLPGQDPIRPGFILAKENGDSRAAARPDWAKDGSFLTFRYLFQMVPEFDDFLESNPIVLPGLSRKEGSELLGARIVGRWKSGAPIEITPLKDDPKLAADAQRSNKFDFGDSLVRGDQTKCPFAAHIRKTYPRNDLEGPPLKADIDNRRIIRRGIQFGPEVTSQEHHDKKTHHGRGLLFVCYSSSIDDGFHFIQESWANAPNFPVNAVTSAGPIPPLDGVVPGFDAIIGQKVGGGIRQISGTNPNDPTTNITLPDQDFVVPRGGEYFFSPSITALKTKFAIGVASPAPHSQAPISA
notes: as for B1
Variant 3F6
  Km: 427 ± 55 µM
  kcat: 5.02 ± 0.15 s⁻¹
  kcat/Km: 11800 ± 1860 M⁻¹ s⁻¹
